Patent publication US20060210655A1, “Bioactive compositions, natural methods of producing them and computational methods for designing natural production processes” (priority 2004, published 2006)

Key:
[1] = obese or nonobese subjects, cited from earlier work
Y2-GPCR = target: T1, Y2-GPCR (Homo sapiens, UniProt P49146); experiment: competitive binding assay against PYY22-36 on Y2-GPCR
T1 sequence (P49146 1-381): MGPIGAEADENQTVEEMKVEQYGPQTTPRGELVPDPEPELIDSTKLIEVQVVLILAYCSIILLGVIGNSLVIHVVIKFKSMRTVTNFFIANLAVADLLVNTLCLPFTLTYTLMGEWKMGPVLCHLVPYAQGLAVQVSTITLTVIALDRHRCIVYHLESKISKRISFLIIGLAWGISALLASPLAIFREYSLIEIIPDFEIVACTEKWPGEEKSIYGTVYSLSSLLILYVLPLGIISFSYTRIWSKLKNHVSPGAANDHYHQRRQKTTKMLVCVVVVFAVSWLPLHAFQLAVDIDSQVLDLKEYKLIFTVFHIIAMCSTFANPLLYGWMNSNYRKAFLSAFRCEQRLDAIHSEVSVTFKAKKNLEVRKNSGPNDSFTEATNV
Protocol: The peptides derived from the proteins AtRGP2, OsRGP1 and OsBiP were synthesized in 5 mg quantities at and purified to a purity of above about 90%. The peptides were tested in a competitive binding assay against PYY^22-36 for binding to the GPCR receptor.
In-vitro receptor-based screening of receptor subtypes Y1, Y2, and Y3 was performed according to protocols known in the art. (Munoz et al., Mol. Cell. Endocrinol. 107, 77 (1995), Fuhlendorf et al., PNAS 87, 182 (1990)) Screening of OsBiP, ZMRGP1 and AtRGP1 was conducted on Y2-GPCR as described above using known methods and activity was measured as the percentage of inhibition of binding of the endogenous ligand PYY^22-36 sequence. The PYY^22-36 sequence was used as a positive control. Of the peptides tested, the one derived from AtRGP1 protein was able to inhibit binding of PYY^22-36 by 20-40% when 10 μM concentration of both the PYY^22-36 and […] peptide were used in the binding assay. […] In vivo tissue-based screening on cultures of rat colon cells can be carried out according to known protocols, such as described in Dumont et al., Eur. J. Pharmacol. 238, 37 (1993).

CCK-B receptor = target: T2, CCK-B receptor (Homo sapiens, UniProt P32239); experiment: competitive binding assay against CCK-8 for binding to the CCK-B GPCR receptor; details: for inhibition of CCK-8 binding to the CCK-B receptor: peptides purified from trypsin hydrolysate, 10 μM; for inhibition of binding of the ligand CCK-8 to CCK-B receptor: synthetic peptides, 10 μM concentration
T2 sequence (P32239 1-447): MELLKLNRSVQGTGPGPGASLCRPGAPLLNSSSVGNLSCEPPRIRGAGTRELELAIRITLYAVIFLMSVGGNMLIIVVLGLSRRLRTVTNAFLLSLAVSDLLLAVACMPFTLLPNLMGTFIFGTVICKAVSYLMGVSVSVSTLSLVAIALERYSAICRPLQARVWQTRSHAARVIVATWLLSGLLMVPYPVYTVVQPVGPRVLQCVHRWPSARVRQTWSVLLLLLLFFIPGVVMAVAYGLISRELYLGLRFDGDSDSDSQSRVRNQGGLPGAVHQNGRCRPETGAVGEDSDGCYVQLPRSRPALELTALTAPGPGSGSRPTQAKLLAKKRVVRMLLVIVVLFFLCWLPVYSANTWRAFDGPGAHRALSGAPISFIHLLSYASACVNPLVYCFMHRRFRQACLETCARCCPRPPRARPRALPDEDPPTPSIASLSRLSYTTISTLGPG
Protocol: Oryzacystatin is a cystein proteinase inhibitor protein. […] The peptides […], PWMDFK and […] were synthesized in 5 mg quantities and purified to a purity of above about 90%. The peptides were tested in a competitive binding assay against CCK-8 for binding to the CCK-B GPCR receptor.
In-vitro receptor-based screening of receptor subtypes CCK-A and CCK-B was performed according to protocols known in the art. The binding activity of peptides […], PWMDFK and […] on CCK-A and CCK-B GPCR was measured as the percentage of inhibition of binding of the endogenous ligand CCK-8 sequence. The CCK-8 sequence was used as a positive control in this assay. […] None of the peptides tested activated CCK-A receptor at concentrations as high as 10 μM, probably due to the lack of sulfonation, a chemical modification required for agonizing the CCK-A receptor.
Hydrolysates were generated from the recombinantly expressed and purified oryzacystatin protein which was isolated from Oryza sativa. Trypsin was used to hydrolyze 10 mg of each sample using standard conditions. […] Again the hydrolysate and the two purified peptides were submitted to receptor-based screening. The hydrolysate itself inhibited CCK-8 binding to the CCK-B receptor by 21% at a 100 μM hydrolysate concentration, while the purified peptides, […] and PWMDFK, inhibited CCK-8 binding by 16%, and 14% at a 10 μM concentrations.
A final optimization of the hydrolysis by the combined consecutive action of trypsin and limited carboxypeptidase digestion was carried out with the goal of obtaining the peptides […] and PWMDF, resulting from the removal of the C-terminal lysine residue.

[2] = target: T3, Y2 G-protein-coupled receptor; experiment: competitive receptor binding assay on Y2-GPCR against PYY22-36, both peptides at 10 µM
T3 sequence (P49146 whole entry, species assumed, looked up): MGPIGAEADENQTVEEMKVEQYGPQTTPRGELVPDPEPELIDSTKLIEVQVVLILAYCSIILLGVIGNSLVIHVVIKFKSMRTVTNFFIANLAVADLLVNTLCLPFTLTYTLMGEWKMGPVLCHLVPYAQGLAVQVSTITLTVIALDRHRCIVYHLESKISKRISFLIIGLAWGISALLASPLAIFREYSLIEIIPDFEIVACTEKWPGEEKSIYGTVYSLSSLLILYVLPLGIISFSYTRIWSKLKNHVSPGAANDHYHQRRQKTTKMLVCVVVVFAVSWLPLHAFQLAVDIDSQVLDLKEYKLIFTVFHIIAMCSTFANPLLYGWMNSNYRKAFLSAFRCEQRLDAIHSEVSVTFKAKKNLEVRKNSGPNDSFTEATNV

[3] = target: T4, CCK-B GPCR receptor (Homo sapiens (Human)) (UniProt P32239); experiment: competitive receptor binding assay against CCK-8 on CCK-B receptor, synthetic peptide at 10 µM
T4 sequence: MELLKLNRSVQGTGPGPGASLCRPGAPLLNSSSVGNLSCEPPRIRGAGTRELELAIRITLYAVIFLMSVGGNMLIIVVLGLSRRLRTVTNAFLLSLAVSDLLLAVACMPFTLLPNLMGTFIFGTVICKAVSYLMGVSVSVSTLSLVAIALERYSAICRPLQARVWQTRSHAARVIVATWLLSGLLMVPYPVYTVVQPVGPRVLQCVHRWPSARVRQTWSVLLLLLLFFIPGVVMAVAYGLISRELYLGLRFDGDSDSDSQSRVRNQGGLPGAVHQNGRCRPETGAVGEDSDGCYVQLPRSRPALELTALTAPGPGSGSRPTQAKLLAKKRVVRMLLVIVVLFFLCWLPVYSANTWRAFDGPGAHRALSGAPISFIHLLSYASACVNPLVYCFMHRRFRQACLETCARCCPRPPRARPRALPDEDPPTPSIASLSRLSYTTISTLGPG

PYY: natural hormone produced by endocrine L-cells in the gut; agonist of Y2 receptors
cumulative 24-hour caloric intake ([1]; after 90-minute intravenous infusion): significant decrease
reduction of caloric intake ([1]; two hours after a 90-minute intravenous infusion): 30%

FDGVDFSEPLTRARF (listed as Oryza sativa) [OsBIP]
binding to the Y2 receptor (Y2-GPCR; qualitative): shown to bind the Y2 receptor

VWEKPWMDFK (listed as Oryza sativa) [Oryza sativa oryzacystatin fragment, trypsin]
inhibition of CCK-8 binding to the CCK-B receptor (CCK-B receptor): 16%
inhibition of binding of the ligand CCK-8 to CCK-B receptor (CCK-B receptor): 27%

YSCRYFGYLVSKKKY (listed as Arabidopsis thaliana) [AtRGP1, peptide derived from Arabidopsis thaliana amylogenin protein RGP]
percentage of inhibition of binding of PYY22-36 (Y2-GPCR; Y2-GPCR, 10 μM concentration of both PYY22-36 and peptide): 20-40%

PWMDFKELQEFK (listed as Oryza sativa) [Oryza sativa oryzacystatin fragment, trypsin]
inhibition of binding of the ligand CCK-8 to CCK-B receptor (CCK-B receptor): 5%

PWMDFK (listed as Oryza sativa) [Oryza sativa oryzacystatin fragment, trypsin]
inhibition of CCK-8 binding to the CCK-B receptor (CCK-B receptor): 14%
inhibition of binding of the ligand CCK-8 to CCK-B receptor (CCK-B receptor): 16%

YSCRYFGYLVSKKKY [AtRGP2 peptide fragment]
% inhibition of binding of PYY22-36 [2]: 20 to 40%

PWMDFKELQEFK [Oryza sativa oryzacystatin hydrolyzed with trypsin - synthetic peptide 3]
% inhibition of binding of CCK-8 [3]: 5%
